We go through 18 sequences from the supplement of paper PMC9170038.

For the data set, the system named is MS2 coat protein. The data set can be described thus: apparent KD of MS2 coat protein; higher = weaker reporter binding. The following applies: Eterna round: R107. In short, it runs like this: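 Illumina sequencing clusters were used for on-chip transcription of designed RNA switches. Titration with SNAP-549-labelled MS2 coat protein followed, in twofold steps from 0.7 or 1.5 nM to 3 µM in 100 mM Tris-HCl pH 7.5, 80 mM KCl, 4 mM MgCl2, without or with constant ligand. Apparent KD is each design's median of fits to normalised cluster binding curves.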

Setting [1] is: input ligand: theophylline 20 uM.
The mark [2] stands for this setting: input ligand: tryptophan 2.4 mM.
[3] abbreviates: input ligand: theophylline 2 mM.

As for “UAAUAAAUAAGUGAUACCAGCGAGAAAACAUGAGGAUCACCCAUGUUCGCCCAUGUUAAGCGCCCUUGGCAGCACAAAUAUAAAA [AstrosExyTheB#1]”, the “apparent KD of MS2 coat protein” value runs as follows: (input ligand: arginine 13.2 mM) 0.0256 µM; under setting [1], 0.0427 µM; under setting [2], 0.0336 µM.
As to “AUCUAUAGAGCGGCCGCCACUGAAUACAUGAGGAUCACCCAUGUAAUGUUAAGGUGGUCCUAGCUCAGGACCGGGCUCUAUAGAU [Tryp B Ex t4]”, the “apparent KD of MS2 coat protein” value amounted to 0.03 µM (input ligand: arginine 13.2 mM), 0.0606 µM under setting [1] and 0.0533 µM under setting [3].
In the case of “GGAUGAAACUGAAGGAGCGAGAUCACAAGAAUGGGUCAAACAUGAGGAUCACCCAUGUAAUCUCAGGUAGGUCGCAGUGUCCCUU [Exclusion Arginine B GF 11]”, the “apparent KD of MS2 coat protein” value is 0.0401 µM (input ligand: arginine 13.2 mM); 0.0404 µM (input ligand: none); 0.0805 µM under setting [1]; 0.0551 µM under setting [3]; 0.0462 µM under setting [2].
As for “AGGAAUGUCACGGCCGCCACUGACGCUAAAAUGGGCUCGAGCCGACAUGAGGAUCACCCAUGUUCCAGGACCGGGUGAAUCCUGG [theeternabot_sameState_MS2_Trp_B_40]”, the “apparent KD of MS2 coat protein” value by setting is: (input ligand: arginine 13.2 mM) 0.102 µM; under setting [1], 0.154 µM; under setting [3], 0.299 µM.
For “UACGUGGAUGCGGCCGCCACUGCUCUGAGCGAGUUGCUCUAUGGACAUGAGGAUCACCCAUGUCACAGGACCGGGCACGCUUUAA [theeternabot_sameState_MS2_Trp_B_50]”, in that order: 0.00914 µM, 0.0119 µM and 0.0106 µM.
Regarding “UCACGACGCAUGGAUACCAGCGACAUGAGGAUCACCCAUGUAUGAGGAUCAGCCAUGUUAUGCCCUUGGCAGCCACGAAGGUCAU [KNKMULLIN]”, the “apparent KD of MS2 coat protein” value is, setting by setting: (input ligand: arginine 13.2 mM) 0.0142 µM; under setting [1], 0.0201 µM; under setting [2], 0.0158 µM.
“AGACUUCGCAUAGGAAAACUAUGUGAAGUCCGAGGACCGGUACGGCCGCCACUCGUCCUCAACAUGAGGAUCACCCAUGUAAUAA [#OpenEnded #CuTurnoff #Tail]”: the “apparent KD of MS2 coat protein” value is, setting by setting: (input ligand: arginine 13.2 mM) 0.0211 µM; under setting [1], 0.026 µM; under setting [3], 0.0235 µM.
“UGGUACAUGGCGGCCGCCACUGGGUUGAAAACCUGAGGAUCACCCUGGUAAAACGCGAAAGCGACUAGGACCGGGUCAUGUACCU”: the “apparent KD of MS2 coat protein” value stood at 0.167 µM (input ligand: arginine 13.2 mM); 0.573 µM (input ligand: none); 0.891 µM under setting [1]; 0.787 µM under setting [3]; 0.0705 µM under setting [2].
As to “AAGUGGCACGGAAGGAGCGAGUUUACCUAAAUAACAUGAGGAUCACCCAUGUAUAAUGGGACUCAGGUAGGUCGCCGUUGUCACU [Same State Arginine B GF 23]”, the “apparent KD of MS2 coat protein” value was 0.0229 µM (input ligand: arginine 13.2 mM); 0.0293 µM (input ligand: none); 0.0431 µM under setting [1]; 0.0288 µM under setting [3]; 0.033 µM under setting [2].
For “GAUAUAUAGGCGGCCGCCACUGAUUUUCAUAUAUAUAUAACAUGAGGAUCACCCAUGUAGAUAUACAGGACCGGGCCUAUAUAUU [aaaB]”, the “apparent KD of MS2 coat protein” value runs as follows: (input ligand: arginine 13.2 mM) 0.0155 µM; under setting [1], 0.016 µM; under setting [3], 0.016 µM.
Take “CGCUACAUGAGGAUCACCCAUGUUACUCCGCGAGGACCGGUACGGCCGCCACUCGGCAGUUUGCGCCGCCGGAGGCACUCUUCAG [theeternabot_sameState_MS2_Trp_A_32]”: the “apparent KD of MS2 coat protein” value by setting is: (input ligand: arginine 13.2 mM) 0.0209 µM; under setting [1], 0.0436 µM; under setting [3], 0.0337 µM.
Take “AACAUGAGGAUCACCCAUGUCUGAACUGAAGGAGCGCUAAAUAAGGCAGGUAGGUCGCGGAAUUUUGUGUGCAUAUGCAUAUGGG [9.I]”: the “apparent KD of MS2 coat protein” value by setting is: (input ligand: arginine 13.2 mM) 0.0281 µM; (input ligand: none) 0.0303 µM; under setting [1], 0.0326 µM; under setting [3], 0.0298 µM; under setting [2], 0.0238 µM.
For “GCCGGGCCCGCGGCCGCCACUGAGAGAGUCGUGUGAACAUGAGGAUCACCCAUGUAAUAUAUAUACAGGACCGGGCGGGCCCGGC [4.X]”, in that order: 0.0138 µM, 0.0104 µM, 0.0201 µM, 0.0157 µM and 0.0139 µM.
For “CUGUACAUCUCGGCCGCCACUGACAUGAGGAUCACCCAUGUAGUACCUGAGAUAGACAUAUCUUACAGGACCGGGAGGUGUGCAG [SSTryp B #31]”, the “apparent KD of MS2 coat protein” value (input ligand: arginine 13.2 mM) worked out at 0.0122 µM; the “apparent KD of MS2 coat protein” value (input ligand: none) came to 0.0102 µM; the “apparent KD of MS2 coat protein” value under setting [1] was found to be 0.0135 µM; the “apparent KD of MS2 coat protein” value under setting [3] is 0.00935 µM; the “apparent KD of MS2 coat protein” value under setting [2] was determined as 0.0106 µM.
For “AUAUAUGACAGAAGGAGCGCCAUGAACACACAUGAGGAUCACCCAUGUUUUUUUUGUGUUUGGCAGGUAGGUCGCUGACAUGAAA [Same State Arginine B 3]”, in that order: 0.00945 µM, 0.00871 µM, 0.0177 µM, 0.0116 µM and 0.00998 µM.
Consider “AAUAUAAGUGUAAUUAUAUGUAUCUCUGAUACCAGACUCUCAUGUGUCCCUUGGCAGCAGUUACAUGAGGAUCACCCAUGUAUUA [JR_Nu_SSTheophyA_Sub024]”, for which the “apparent KD of MS2 coat protein” value runs as follows: (input ligand: arginine 13.2 mM) 0.0343 µM; under setting [1], 0.0802 µM; under setting [2], 0.0845 µM.
Consider “UGUCGAAACUGAAGGAGCGAGAUGACAAACAUGAGGAUCACCCAUGUUAUGGGUUGUUAAUCUCAGGUAGGUCGCAGUGACAAAA [Same State Arginine B GF 16]”, for which the “apparent KD of MS2 coat protein” value is, setting by setting: (input ligand: arginine 13.2 mM) 0.0882 µM; (input ligand: none) 0.106 µM; under setting [1], 0.0868 µM; under setting [3], 0.15 µM; under setting [2], 0.103 µM.
For “AGACACAUGAGGAUCACCCAUGUACACGAGCGAGGACCGGUACGGCCGCCACUCGUCCAAGCAACUAAUGAGACUCGUAAGAUGG [theeternabot_sameState_MS2_Trp_A_5]”, the “apparent KD of MS2 coat protein” value (input ligand: arginine 13.2 mM) came out at 0.0171 µM, the “apparent KD of MS2 coat protein” value under setting [1] was found to be 0.0316 µM and the “apparent KD of MS2 coat protein” value under setting [3] came to 0.0234 µM.
